Measured values: paper PMC10328077 (2023)

B1: FH402Y, isolated from plasma of FH402Y homozygous healthy donors (natural protein)
chain: EDCNELPPRRNTEILTGSWSDQTYPEGTQAIYKCRPGYRSLGNVIMVCRKGEWVALNPLRKCQKRPCGHPGDTPFGTFTLTGGNVFEYGVKAVYTCNEGYQLLGEINYRECDTDGWTNDIPICEVVKCLPVTAPENGKIVSSAMEPDREYHFGQAVRFVCNSGYKIEGDEEMHCSDDGFWSKEKPKCVEISCKSPDVINGSPISQKIIYKENERFQYKCNMGYEYSERGDAVCTESGWRPLPSCEEKSCDNPYIPNGDYSPLRIKHRTGDEITYQCRNGFYPATRGNTAKCTSTGWIPAPRCTLKPCDYPDIKHGGLYHENMRRPYFPVAVGKYYSYYCDEHFETPSGSYWDHIHCTQDGWSPAVPCLRKCYFPYLENGYNQNYGRKFVQGKSIDVACHPGYALPKAQTTVTCMENGWSPTPRCIRVKTCSKSSIDIENGFISESQYTYALKEKAKYQCKLGYVTADGETSGSITCGKDGWSAQPTCIKSCDIPVFMNARTKNDFTWFKLNDTLDYECHDGYESNTGSTTGSIVCGYNGWSDLPICYERECELPKIDVHLVPDRKKDQYKVGEVLKFSCKPGFTIVGPNSVQCYHFGLSPDLPICKEQVQSCGPPPELLNGNVKEKTKEEYGHSEVVEYYCNPRFLMKGPNKIQCVDGEWTTLPVCIVEESTCGDIPELEHGWAQLSSPPYYYGDSVEFNCSESFTMIGHRSITCIHGVWTQLPQCVAIDKLKKCKSSNLIILEEHLKNKKEFDHNSNIRYRCRGKEGWIHTVCINGRWDPEVNCSMAQIQLCPPPPQIPNSHNMTTTLNYRDGEKVSVLCQENYLIQEGEEITCKDGRWQSIPLCVEKIPCSQPPQIEHGTINSSRSSQESYAHGTKLSYTCEGGFRISEENETTCYMGKWSSPPQCEGLPCKSPPEISHGVVAHMSDSYQYGEEVTYKCFEGFGIDGPAIAKCLGEKWSHPPSCIKTDCLSLPSFENAIPMGEKKDVYKAGEQVTYTCATYYKMDGASNVTCINSRWTGRPTCRDTSCVNPPTVQNAYIVSRQMSKYPSGERVRYQCRSPYEMFGDEEVMCLNGNWTEPPQCKDSTGKCGPPPPIDNGDITSFPLSVYAPASSVEYQCQNLYQLEGNKRITCRNGQWSEPPKCLHPCVISREIMENYNIALRWTAKQKLYSRTGESVEFVCKRGYRLSSRSHTLRTTCWDGKLEYPTCAKR
B2: recombinant N-terminal fragment apoE2(1–165) (domain or fragment)
chain: KVEQAVETEPEPELRQQTEWQSGQRWELALGRFWDYLRWVQTLSEQVQEELLSSQVTQELRALMDETMKELKAYKSELEEQLTPVAEETRARLSKELQAAQARLGADMEDVCGRLVQYRGEVQAMLGQSTEELRVRLASHLRKLRKRLLRDADDLQKCLAVYQAG
modifications: NT647 dye (Monolith RED-NHS labelling kit) in the MST; unlabelled in the ELISA and the cross-linking

How the values were obtained:
[1] = target: B2; experiment: MST
[2] = target: FH402H, isolated from plasma of FH402H homozygous healthy donors (human, UniProt P08603 19-1231, Y402H); experiment: MST

Kd [1]	Kd [2]	Binder
200 nM	–	B1
–	400 nM	B2
